Experimental data published in publication PMC7250872, “Repression of the lysogenic PR promoter in bacteriophage TP901-1 through binding of a CI-MOR complex to a composite OM-OR operator” (Scientific Reports, 2020).

Tests used:
[1] = target: MOR (Modulator Of Repression) of bacteriophage TP901-1, wild type, untagged (bacteriophage TP901-1) (UniProt O48504); experiment: cross-linking; 0.05% glutaraldehyde, room temperature, 0-60 min, 20 mM HEPES pH 7.5, 200 mM NaCl (100 mM salt by p-0027); CI about 20 uM, MOR 4 or 20 uM, alone or together; SDS PAGE, coomassie
[2] = target: the molecule itself; experiment: as above
[3] = target: T1, CI-NTD89-His6 (CI N-terminal domain 1-80 plus linker 81-89) (bacteriophage TP901-1, UniProt O48503 1-89); experiment: SEC; Superdex 75 Prep Grad, 20 mM Tris, 100 mM NaCl, pH 7.4; CI-NTD89 and MOR mixed in about 4:1 molar ratio; settings: both partners purified
T1 construct: CI repressor, lactococcal bacteriophage TP901-1, N-terminal domain (1-80) and flexible linker (81-89); also called CI-NTD_(1-89); source: E. coli BL21 (pET30a(+)), purified (His-Trap, SEC)
T1 sequence (looked up): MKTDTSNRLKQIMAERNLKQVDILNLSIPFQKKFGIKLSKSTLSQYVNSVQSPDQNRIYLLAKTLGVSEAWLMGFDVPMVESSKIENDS

## MOR (Modulator Of Repression) of bacteriophage TP901-1, wild type, untagged (from UniProt O48504 1-72) (natural protein)
[1]
  stoichiometry N: 2

B1: CI repressor of bacteriophage TP901-1, wild type, untagged (natural protein, UniProt O48503 1-180, looked up)
chain: MKTDTSNRLKQIMAERNLKQVDILNLSIPFQKKFGIKLSKSTLSQYVNSVQSPDQNRIYLLAKTLGVSEAWLMGFDVPMVESSKIENDSENIEETITVMKKLEEPRQKVVLDTAKIQLKEQDEQNKVKQIEDYRLSDEYLEEQISKASAYGGGQLNDNDKEFFKRLLKNTLKEKIDKGDL
notes: CI repressor, lactococcal bacteriophage TP901-1; also called native CI repressor; full length CI; source: E. coli AJ159 (cI in expression vector pUHE23-2), in cell extract; also purified (eluted from the DNA pellet with 1 M NaCl; pooled fractions from Superdex gel filtration)
[2]
  stoichiometry N: 2

B2: MOR (1-72) released from GST-MOR by thrombin (natural protein, bacteriophage TP901-1, UniProt O48504 1-72, looked up)
chain: MSYDYSSLLGKITEKCGTQYNFAIAMGLSERTVSLKLNDKVTWKDDEILKAVHVLELNPQDIPKYFFNAKVH
notes: MOR (Modulator Of Repression), lactococcal bacteriophage TP901-1, residues 1-72; also called cleaved MOR; source: E. coli BL21 (pGEX4-2, GST-MOR), purified (GST-Trap, thrombin cleavage on the column, SEC)
[3]
  stoichiometry N: 1
